To fix the notation:
B1: MLL 5-14 peptide (peptide)
peptide: CRWRFPARPG
notes: Synthetic peptide; also called MLL peptide 5-14

Here are results for 14 molecules from patent publication US20090298772A1 (UNIVERSITY OF CHICAGO, published 2009).

This assay has as its target T1, menin (endogenous, 293 cell lysate) (UniProt O00255 1-610).
T1 construct: Endogenous protein of transfected 293 cells (a human cell line); Co-immunoprecipitated with FLAG-MLL 1-330; also called endogenous menin; product of the MEN1 tumor suppressor gene
T1 sequence (looked up): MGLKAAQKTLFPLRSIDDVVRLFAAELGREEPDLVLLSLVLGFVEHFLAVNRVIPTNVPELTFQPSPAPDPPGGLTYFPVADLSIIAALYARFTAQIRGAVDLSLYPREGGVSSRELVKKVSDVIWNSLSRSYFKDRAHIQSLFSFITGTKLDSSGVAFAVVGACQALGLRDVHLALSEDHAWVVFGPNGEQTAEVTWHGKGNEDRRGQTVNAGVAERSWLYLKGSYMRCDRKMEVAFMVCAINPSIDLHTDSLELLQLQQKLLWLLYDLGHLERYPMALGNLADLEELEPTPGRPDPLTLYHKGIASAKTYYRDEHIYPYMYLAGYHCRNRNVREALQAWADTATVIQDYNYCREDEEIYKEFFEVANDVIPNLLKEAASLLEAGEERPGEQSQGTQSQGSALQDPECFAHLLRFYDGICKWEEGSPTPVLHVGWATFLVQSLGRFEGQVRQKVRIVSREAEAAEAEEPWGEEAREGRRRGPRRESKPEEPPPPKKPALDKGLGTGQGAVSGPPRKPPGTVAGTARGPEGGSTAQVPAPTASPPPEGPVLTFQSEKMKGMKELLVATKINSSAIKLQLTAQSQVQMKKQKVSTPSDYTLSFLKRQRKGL
The assay is described as follows: competition with FLAG-MLL 1-330 for endogenous menin, co-IP / Western blot (FIG. 1); binding to menin shown only by blocking.
Description: Cell lysates were immunoprecipitated with anti-FLAG antibody (Sigma), separated by SDS-PAGE and blotted with an anti-menin antibody (Bethyl Laboratories Inc. or Santa-Cruz).
Regarding B1, the binding result was “binds”.
The result for MAHSCRWRFPARPGTTGGGGGGGRRG (Synthetic peptide) [MLL peptide 1-26] reads “binds”; that for SCRWRFPARPG (Synthetic peptide) [MLL peptide 4-14], “binds”; that for SCRWRFPARPGTTGG (Synthetic peptide) [MLL peptide 4-18], “binds”.
The result for AHSCRWRFPARPG (Synthetic peptide) [MLL peptide 2-14] reads “binds”; that for AHSCRWRFPARPGTTGG (Synthetic peptide) [MLL peptide 2-18], “binds”.
Take HSCRWRFPARPGTTGG (Synthetic peptide) [MLL peptide 3-18]: the binding result is reported as “binds”.
For MAHSCRWRFPARPGTTGGGGGG (Synthetic peptide) [MLL peptide 1-22] the value was “binds”; for CRWRFPARPGTTGG (Synthetic peptide) [MLL peptide 5-18], “binds”.
The result for MAHSCRWRFPARP (Synthetic peptide) [MLL peptide 1-13] reads “binds”.
For MAHSCRWRFPARPG (Synthetic peptide) [MLL peptide 1-14] the value was “binds”; for MAHSCRWRFPARPGTTGGGGGGGRRGLGGG (Synthetic peptide) [MLL peptide 1-30], “binds”.
Regarding HSCRWRFPARPG (Synthetic peptide) [MLL peptide 3-14], the binding result is reported as “binds”.
For MAHSCRWRFPARPGTTGG (Synthetic peptide) [MLL peptide 1-18] the value was “binds”.
